± gives the uncertainty stated by the source.
B1: Zinc finger protein ZIC 2, residues 250 to 295; numbered along this chain, O95409 (parent)
chain: QCIKQELICKWIDPEQLSNPKKSCNKTFSTMHELVTHVSVEHVGGP

Variants of: B1
Experiment: abundance fitness (aPCA) (normalised: wild type 0, dead -1); higher = more abundant; growth selection in yeast, the domain comes from the species named
Conditions: Homo sapiens

Abundance fitness: each site, then its substitutions
K21: F 0.01 ± 0.11 | M -0.203 ± 0.13 | G -0.12 ± 0.086
Q5: F -0.612 ± 0.097 | I -0.906 ± 0.11 | W -0.777 ± 0.14 | R -0.014 ± 0.091 | V -0.779 ± 0.11 | A -0.071 ± 0.098 | G -0.283 ± 0.13
L34: T -0.696 ± 0.1 | Q -0.48 ± 0.12 | F -0.039 ± 0.1 | W -0.029 ± 0.096 | E -0.717 ± 0.1 | R -0.705 ± 0.089 | V -0.615 ± 0.09 | M 0.087 ± 0.095
K4: A -0.187 ± 0.1 | Q -0.458 ± 0.13 | V -0.513 ± 0.098 | S -0.204 ± 0.096 | T -0.304 ± 0.13 | F -0.645 ± 0.13
I3: F -0.57 ± 0.12 | M 0.174 ± 0.11 | E -0.352 ± 0.1 | A -0.568 ± 0.096 | T 0.052 ± 0.1 | L -0.254 ± 0.092 | W -0.376 ± 0.1
T27: E 0.188 ± 0.097 | D 0.072 ± 0.11 | R -0.025 ± 0.084 | Y -0.818 ± 0.17 | C -0.17 ± 0.099 | S -0.001 ± 0.087 | M 0.182 ± 0.094
P46: A -0.578 ± 0.24 | T -0.673 ± 0.21 | I -0.976 ± 0.43 | D 0.004 ± 0.26 | C 0.1 ± 0.29 | F -0.736 ± 0.36 | L -0.556 ± 0.28
C9: S -0.78 ± 0.095 | D -0.758 ± 0.11 | L -0.863 ± 0.098 | E -0.578 ± 0.11 | M -0.822 ± 0.12 | F -0.975 ± 0.14 | V -0.841 ± 0.093 | P -0.776 ± 0.11 | I -0.96 ± 0.13 | A -0.651 ± 0.091
E15: Y -0.14 ± 0.12 | I 0.051 ± 0.11 | L 0.104 ± 0.087 | W -0.206 ± 0.094 | F -0.23 ± 0.11 | K 0.077 ± 0.11 | S 0.018 ± 0.088 | C -0.132 ± 0.11 | V -0.137 ± 0.087
P20: E -0.046 ± 0.12 | T -0.554 ± 0.11 | A -0.235 ± 0.094 | F -0.356 ± 0.12 | Y -0.621 ± 0.15 | R -0.416 ± 0.086
L7: N 0.22 ± 0.11 | Q 0.401 ± 0.097 | I -0.103 ± 0.12 | F -0.322 ± 0.12 | W -0.223 ± 0.09 | G -0.425 ± 0.088 | V 0.08 ± 0.089 | M 0.191 ± 0.099 | K 0.309 ± 0.099
D13: P -0.387 ± 0.11 | F 0.041 ± 0.14 | K -0.66 ± 0.13 | Q -0.492 ± 0.12 | I -0.559 ± 0.22 | R -0.442 ± 0.089 | C -0.176 ± 0.12 | H -0.216 ± 0.15 | G -0.328 ± 0.087
I12: D -0.064 ± 0.12 | R -0.228 ± 0.086 | P 0.018 ± 0.1 | A -0.363 ± 0.093 | F -0.179 ± 0.11 | Q -0.144 ± 0.11
V38: W 0.82 ± 0.09 | S 0.202 ± 0.088 | T 0.052 ± 0.1 | E 0.518 ± 0.095 | I -0.021 ± 0.1 | C -0.066 ± 0.1 | M 0.278 ± 0.1 | F 0.08 ± 0.13 | D -0.159 ± 0.1 | K 0.623 ± 0.097 | P -0.417 ± 0.12 | N 0.035 ± 0.13 | L -0.165 ± 0.091 | Y 0.066 ± 0.12
K22: G -0.126 ± 0.088 | V 0.037 ± 0.089 | C -0.349 ± 0.11 | D -0.035 ± 0.13 | H -0.006 ± 0.12
E6: N -0.264 ± 0.28 | W -0.767 ± 0.22 | T -0.748 ± 0.37 | K -0.687 ± 0.24 | I -1.62 ± 0.49 | S 0.009 ± 0.19 | A -0.351 ± 0.14
V43: Q 0.116 ± 0.095 | A 0.052 ± 0.086 | F 0.063 ± 0.11 | R 0.226 ± 0.085 | S 0.313 ± 0.088 | P 0.129 ± 0.095
G45: D 0.034 ± 0.088 | E -0.032 ± 0.1 | S -0.244 ± 0.089 | Q -0.217 ± 0.13
N19: E -0.006 ± 0.093 | D -0.092 ± 0.11 | L -0.17 ± 0.088 | P -0.104 ± 0.1 | T 0.118 ± 0.099 | K -0.012 ± 0.1 | S -0.079 ± 0.089
H42: S -0.854 ± 0.095 | Y -0.971 ± 0.12 | L -0.975 ± 0.098 | M -0.642 ± 0.12 | E -1.07 ± 0.13 | C -1.16 ± 0.14
E33: C -0.777 ± 0.11 | Q -0.046 ± 0.11 | R -0.69 ± 0.09 | S -0.452 ± 0.092 | I -0.932 ± 0.14 | P -0.826 ± 0.12 | W -0.979 ± 0.1
T30: V -0.429 ± 0.099 | R -0.418 ± 0.094 | A 0.122 ± 0.096 | M -0.765 ± 0.15 | K -0.389 ± 0.13 | P -0.923 ± 0.13 | S -0.273 ± 0.096 | E -0.316 ± 0.12 | G -0.178 ± 0.092 | C -0.999 ± 0.16 | Q -0.159 ± 0.11
H37: N -0.747 ± 0.19 | G -0.565 ± 0.11 | I -1 ± 0.26 | Q -0.93 ± 0.15 | R -0.789 ± 0.11 | W -0.953 ± 0.15

Source: the Human Domainome abundance scans (Beltran et al. 2025)
